Consider one substance from WO2010066762A1.

The assay deals with Recombinant Interleukin-1 beta (IL-1B) (human) (UniProt P01584). Kind of assay: cell-based or functional assay.
UniProt P01584, sequence (P01584 117-269 limits assumed): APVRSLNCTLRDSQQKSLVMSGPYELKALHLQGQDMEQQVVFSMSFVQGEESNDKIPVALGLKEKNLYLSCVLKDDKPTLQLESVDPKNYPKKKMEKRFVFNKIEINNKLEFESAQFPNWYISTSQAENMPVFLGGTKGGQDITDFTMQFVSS

As to ACZ885 antibody, the Bioassay [%] (relative potency vs ACZ885 reference standard); reconstituted lyophilisate F1, stored at 5°C came out at 103%; the Bioassay [%] (relative potency vs ACZ885 reference standard); reconstituted lyophilisate F1, stored at 25°C is 99%; the Bioassay [%] (relative potency vs ACZ885 reference standard); reconstituted lyophilisate F1, stored at 40°C was determined as 93%; the Bioassay [%] (relative potency vs ACZ885 reference standard); reconstituted lyophilisate F3, stored at 5°C was found to be 101%. In addition, the Bioassay [%] (relative potency vs ACZ885 reference standard); reconstituted lyophilisate F3, stored at 25°C turned out to be 91%; the Bioassay [%] (relative potency vs ACZ885 reference standard); reconstituted lyophilisate F3, stored at 40°C was determined as 95%; the Reporter Gene Assay [%] (relative potency vs ACZ885 reference standard); liquid formulation 150 mg/mL, start was determined as 121%; the Reporter Gene Assay [%] (relative potency vs ACZ885 reference standard); liquid formulation, 5°C, 4 months was determined as 97%. Moreover, the Reporter Gene Assay [%] (relative potency vs ACZ885 reference standard); liquid formulation, 5°C, 10 months was 99%; the Reporter Gene Assay [%] (relative potency vs ACZ885 reference standard); liquid formulation, 5°C, 16.5 months came out at 110%; the Reporter Gene Assay [%] (relative potency vs ACZ885 reference standard); liquid formulation, 5°C, 24 months (n=4) stood at 99%; the Reporter Gene Assay [%] (relative potency vs ACZ885 reference standard); liquid formulation, 25°C, 4 months worked out at 100%. The Reporter Gene Assay [%] (relative potency vs ACZ885 reference standard); liquid formulation, 25°C, 10 months worked out at 85%; the Reporter Gene Assay [%] (relative potency vs ACZ885 reference standard); liquid formulation, 25°C, 16.5 months turned out to be 74%; the Reporter Gene Assay [%] (relative potency vs ACZ885 reference standard); liquid formulation, 25°C, 24 months (n=4) is 70%; the Reporter Gene Assay [%] (relative potency vs ACZ885 reference standard); liquid formulation, 40°C, 2 months worked out at 78%. Besides, the Reporter Gene Assay [%] (relative potency vs ACZ885 reference standard); liquid formulation, 40°C, 4 months is 53%.
